Assay results as given in publication PMC314469, “Protein Interaction Networks by Proteome Peptide Scanning” (PLoS Biology, 2004).

T1: Myo5 SH3 (MYO5_YEAST), Q04439
T1 chain: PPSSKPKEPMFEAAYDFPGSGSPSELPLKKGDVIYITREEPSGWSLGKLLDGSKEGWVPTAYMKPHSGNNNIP

T2: Boi2 SH3 (BOI2_YEAST), P39969
T2 chain: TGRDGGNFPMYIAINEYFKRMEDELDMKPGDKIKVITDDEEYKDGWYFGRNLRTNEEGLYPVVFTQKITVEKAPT

T3: Yhr016c SH3 (YSC84_YEAST), P32793
T3 chain: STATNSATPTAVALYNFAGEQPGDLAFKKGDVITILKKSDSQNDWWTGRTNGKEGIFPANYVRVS

T4: Yfr024 SH3 (LSB3_YEAST), P43603
T4 chain: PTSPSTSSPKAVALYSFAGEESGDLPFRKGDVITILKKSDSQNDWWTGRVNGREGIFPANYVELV

T5: Boi1 SH3 (BOI1_YEAST), P38041
T5 chain: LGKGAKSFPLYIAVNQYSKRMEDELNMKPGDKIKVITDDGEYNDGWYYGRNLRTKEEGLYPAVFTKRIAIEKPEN

T6: Rvs167 SH3 (RV167_YEAST), P39743
T6 chain: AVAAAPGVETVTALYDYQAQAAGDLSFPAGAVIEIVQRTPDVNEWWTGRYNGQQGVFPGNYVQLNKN


What was measured:
Experiment in all cases: SPOT array
[1] = molecular target: T1, Myo5 SH3 (MYO5_YEAST), Q04439
[2] = molecular target: T2, Boi2 SH3 (BOI2_YEAST), P39969
[3] = molecular target: Sho1 SH3 (SHO1_YEAST), P40073
Sequence of Sho1 SH3 (SHO1_YEAST), P40073 (P40073 295-366): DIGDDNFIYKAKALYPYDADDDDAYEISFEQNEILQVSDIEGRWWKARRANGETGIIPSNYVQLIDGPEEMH

[4] = molecular target: T3, Yhr016c SH3 (YSC84_YEAST), P32793
[5] = molecular target: T4, Yfr024 SH3 (LSB3_YEAST), P43603
[6] = molecular target: T5, Boi1 SH3 (BOI1_YEAST), P38041
[7] = molecular target: T6, Rvs167 SH3 (RV167_YEAST), P39743

| normalised SPOT signal, Boehringer light units (BLU); mean over the file's lines of this peptide [1] | normalised SPOT signal, Boehringer light units (BLU); mean over the file's lines of this peptide [2] | normalised SPOT signal, Boehringer light units (BLU); mean over the file's lines of this peptide [3] | normalised SPOT signal, Boehringer light units (BLU); mean over the file's lines of this peptide [4] | normalised SPOT signal, Boehringer light units (BLU); mean over the file's lines of this peptide [5] | normalised SPOT signal, Boehringer light units (BLU); mean over the file's lines of this peptide [6] | normalised SPOT signal, Boehringer light units (BLU); mean over the file's lines of this peptide [7] | Binder |
| --- | --- | --- | --- | --- | --- | --- | --- |
| 176 | 99.3 | 63.6 | 40.4 | 514 | 88.3 | 66.5 | YSPWKLSPLLPILY [YCR001W 27-40] |
| 240 | 184 | 191 | 278 | 3060 | 107 | 177 | WLDEKRIPSTPVDY [YGR124W 196-209] |
| 102 | 409 | 19600 | 201 | 4860 | 78.2 | 278 | WFDLKGLPRQPEPL [YFL041W 550-563] |
| 1270 | 30.6 | 31.7 | 131 | 1350 | 12.8 | 43.8 | WFILKLFPHEPIEG [YMR034C 292-305] |
| 163 | 962 | 81.5 | 179 | 1670 | 11.5 | 897 | WLDEKRIPSTPIDY [YPR145W 196-209] |
| 2100 | 3730 | 2030 | 1970 | 7740 | 46.7 | 1330 | WRWARDTPRAPGLH [YCR020C 147-160] |
| 379 | 1740 | 3290 | 1880 | 9510 | 52300 | 2780 | WEALKSVPIPPRKN [YJR113C 98-111] |
| 81.2 | 1320 | 132 | 1270 | 3220 | 115 | 892 | WSQMRMNPTNPDWI [YPR074C 45-58] |
| 88.8 | 70.7 | 62.8 | 125 | 862 | 66.1 | 149 | WLGNKYDPENPFND [YBL088C 600-613] |
| 80.6 | 46.2 | 59.7 | 22.5 | 147 | 59.5 | 20.5 | YDLTRFLPNHPGGQ [YML054C 114-127] |
| 189 | 33.2 | 39.9 | 257 | 159 | 87.3 | 127 | YAVGRIVPDSPTYD [YBL035C 295-308] |
| 110 | 2 | 112 | 22 | 512 | 44.9 | 71.5 | YAVDKIMPPTPAKK [YAL024C 308-321] |
| 96.8 | 81.2 | 38.9 | 140 | 2790 | 104 | 82 | WENFKEEPGEPLSR [YMR227C 326-339] |
